The values below come from patent US20120276019.

For data set [1], the target named is recombinant α-synuclein 1-95 (1-95 AA) (GenWay Biotech) (UniProt P37840).
The target of data set [2] is recombinant α-synuclein, full length (1-140 AA) (rPeptide) (UniProt P37840).

Sequence of porcine pancreas derived KLK1 (chain, as listed by the source): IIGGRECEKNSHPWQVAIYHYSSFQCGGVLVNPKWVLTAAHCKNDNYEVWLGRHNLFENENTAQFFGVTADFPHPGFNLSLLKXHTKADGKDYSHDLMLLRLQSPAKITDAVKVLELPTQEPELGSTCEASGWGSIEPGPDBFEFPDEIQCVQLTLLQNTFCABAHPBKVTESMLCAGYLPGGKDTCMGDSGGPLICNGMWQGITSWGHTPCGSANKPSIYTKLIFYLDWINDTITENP

porcine pancreas derived KLK1: in data set [1], the “degradation (cleavage) of α-synuclein 1-95, Western blot after 3 hours at 37° C., 1 mM KLK1 + 250 µg/ml α-synuclein 1-95” value is given as “After 3 hours of treatment, all detectable α-synuclein 1-95 was degraded by KLK1”. Further, in data set [2], the “degradation (cleavage) of α-synuclein, Western blot after 24 hours at 37° C., 100 nM KLK1 + 2.5 µM α-synuclein” value is recorded as “After 24 hours of treatment, all detectable α-synuclein was degraded by KLK1”.
